Measurements reported in the nanobody polyreactivity screen of Harvey et al. (2022).

Assay: yeast display, Sf9 membrane polyspecificity reagent, FACS + sequencing; frameworks hold sequencing errors
In short: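 In a synthetic yeast display library (Saccharomyces cerevisiae BJ5465), nanobody expression was induced with galactose for 36–48 hours. FACS gates were set low and high (top ~1%) using anti-HA fluorescence for expression and streptavidin fluorescence for binding of the Sf9 membrane reagent. Each polyreactivity label is drawn from the gate of origin.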

Sequence	polyreactivity (PSR sort gate)
QVQLVESGGGLVQAGGSLRLSCAASGNIFGYYAMGWYRQAPGKERELVAAITTTGGSTYYADSVKGRFTISRDNAKNTVYLQMNSLKPEDTAVYYCAAETGYWYYYWGQGTLVTVSS	high polyreactivity
QVQLVESGGGLVQAGGSLRLSCAPSGLTFDVYAMGWYRQAPWKQRELVAAISSIGGSTYYADSVKGRFTISRDTAKNTVYVQMNSLKPEDTAVYYCAAAISLYSYDYWGQGTQVTVSS	low polyreactivity
QVQLVESVGGLVQPGGSLRLSCAASGFTFRNNAMGWYRQSPVKERELVAAITGSGGRTYYTDSVKGRFTISSDNAKNTVYLQMHSLKPEDTAVYYCNTRYRGVHYTEMDYWGQGTQVSVSS	high polyreactivity
QVQLVESGGGLVQAGGSLRLSCAASGRNFKIYTMGWYRQAPGKERELVAAISSSGRTYYADSVKGRFTISRDNAKNTVYLQMNSLKPEDTAVYYCAAVPYTRWKGADGDYWGQGTQVTVSS	high polyreactivity
QVQLVESGGGLVQAGGSLRLSCAASGGTFGGNAMGWYRQAPGKERELVAAITDIGGSTYYADSVKGRFTISRDNAKNTVYLQMNSLKPEDTAVYYCAKDNVEVVGQWSSDEYDYWGQGTQVTVSS	low polyreactivity
QVQIVESGGGLVQAGGSLRLSCAASGLTFAYYAMGRYRQAPGKERELVAAISYSGGSTYYADSVKGRFTISRDNAKITVYLQMNSLKPEDTAVYYCNAYSRKTPHLYYYWGQGTQVTVSS	high polyreactivity
QVQLVESGGGLVQAGGSLRLSCAASGRTFTPYAKGWYRQAPGKERELVATISSGTSTNYADSVKGRFTISLDNAKYTVYLQMNSLKPEDTAVYYCAADGYTYKFDYWGQGSQVTVSS	low polyreactivity
QVQLVESGGGLVQAGGSLRLSCAASGGTFDSYAMGWYRQAHGKERELVAAITRRTSSTYYADSVKGRFTISRDNAKNTVYLQMHSLKPEDTAVYYCNADSYYYDHRDFGYWGQGTLVTVSS	high polyreactivity
QVQLVESGGGLVQAGGSLRLSCAASGRTFYKNAMGWYRQAPGKERELVATITSGGSTNYADSVKGRFTISRDNAKNTVYLQMNSLKPEDTAVYYCAAAKPVQFRIAQAHVGYWGQGTQVTVSS	low polyreactivity
QVQLVESGGGLVQAGGSLRLSCADSGSTFWFYERGWYSQAPGKVRELVAVISNSGSTYYADSVKGLFTISRDNAKNTVYLQMNSLKPEDTAVYYCNKDGGGDSYWYDYWGQGTQVTVSS	low polyreactivity
QVQLVESGGGLVQAGGSLRLSCAASGITIVLYAMGWYRQAPGQERQLVAAINIDGNTNYADSVKGRFTISRDNAKNTVYLQMNSLKPEDTAVYYCAATFVPAQSRYTGSKYDYWGQGTQVTVSS	low polyreactivity
QVQLVESGGGLVQAGGSLRLSCAASGRIFDFYAMGWYRQAPGKERELVAAISWDGSDTYYADSVKGRFTISRDNAKNTVYLQMNSLKPEDTAVYYCAADYYSPSGQEYNYWGQGTQVTVSS	high polyreactivity
QDQLVESGGGLVQAGGSLRLSCAASGFIFGGYAMGWYRQAPGKERELVAAISSSGGSTYYADSVKGRFTISRDNAKNTVYLQMNSLKPEDTAVYYCAKVGWSRRYYYWGQGTQVTVSS	high polyreactivity
QVQLVESCGGLVQAGGSLRLICAASGITFYRNAMGGYRQAPWKERELVAAITRRGGSTYYADSVKGRFTISRDNAKNTVYCQMNIVKPEDTAVYYCAAQDATRGDGYWGQGTQVTVSS	high polyreactivity
QVQLVESGGGLVQAGGSLRLRCAASGSTFRQYAMGWYRQAPGKERELVAAISSGGRTNYADSVKGRFTISRDNAKNTVYLQMNSLKPEDTAVYYCAADIRRRVPVRGYYYWGQGTQVTVSS	high polyreactivity
QVQLVESGGGLVQAGGSLRLSCAASGRIFVYYAMGWYRQAPGKERELVAAITSGGGSTYYADSVKGRFTISRDNAKNTVYLQMNSLKPEDTAVYYCNKGYYYPYDYWGQGTQVTVSS	high polyreactivity
QVQLVESGAVLVQAGGSLRLSCAASGGTFSGYTMGWYRQAPGKERELVAAITRSGSSTYYADSVKGRFTISRDNAKHTVYLQMNSLKPEDTAVSYCAATYPTSSSSYYNRYYWGQGTQVTVSS	high polyreactivity
QVQLVESGGGLVQAGGSLRLSCAASGYTFSPNDMGWYRQAPGKERELVAAITSSVGSTYYADSVKGRFTISRDNAKNTVYLQLNSLKPEDTAVYYCNKQDSSYYISGGGDYDYWGQGTQVTVSS	low polyreactivity
QVQLQESVGGLVQACGSLRLSCAASGYIFSHQYMGWYRQAPGKERELVASISPGATTNYADSVKGRFTISRDNAKNTVYLQMNSLKPEDTAVYYYAVYQILDRRLSYWGQGTQVTVSC	high polyreactivity
QVQLVESGGGLVQAGGSLRLSCAASGSTFYPTAMGWYRQAPGKERELVAAIRVRGGSTYYADSVKGRYTISRDNAKNTVYLKRNCLKPEDTAVYYCNADTFSSFGWGQGTQVTVSS	low polyreactivity
QVQLVESGGGLVQAGGSHRLSCAASGRTFANYAMGWYRQAPGKERELVAAITSGGRTYYADSVKGRFTISRDNAKNTVYLQMNSLKPEDSAVYYCAADYTYDYQNDYWGQGTQVTVSS	high polyreactivity
QVQLVESGGGLVQAGGSLRVSCAASGRTSSINAMGWYREAPGKERELVAVITGRGGSTYYADSVKGRCTISRDNAKNTVYLQINSLKPEDTAVYYCAARRVPSVSGTYDYWGQGTQVTVSS	high polyreactivity

Sequence	polyreactivity (PSR sort gate)
QVQLVESGGGLVQAGGSLRLSCAASGRTFDTNARGWYRQAPGKERELVAVITARGGNTSYADSVKGRFTISRDNAKNTVYLQMNSLKPEDTAVYYCAARVYRAPWTYEEGNYWGQGTQVTVSS	low polyreactivity
QVQLVESGGGLVQAGGSLRLSCAASGRIFYYNAMGWYRQAPGKERELVARISSGGSTNYADSVKGRFTISRDNAKNTVYLQMNSLKPEDTAVYYCAVAKGGLAWGVGRAGRYDFWGQGTQVTVSS	low polyreactivity
QVQLVESGGGLGQAGGSLRLSCAASGGTFYYYAMGWSRQAPGKERELVAAITESGGSTYYGDSVKGRFTISRDNAKNTVNLQMNSLKPEDTAVYYCAAETYYGDDGYWGQGTQVTVSS	low polyreactivity
QVQLVESGGGLVQAGGSLRLSCAASGISFYVNAMGSYRQAPGKERELVVAITQSVDITSYADSVKGRFTISRDNEKNTVYLQMNSLKPEVTAVYYCATRVIQDDNARDYWGQGTQVTVSS	low polyreactivity
QVQVVESGGGLVQAGGSLRLSCAASGSIFSGYAMGWYREAPGKERELVAAITSSGGSTYYADSVKGRFTISRDNAKKTVYLQMHSLKPEDTAVYYCAAYRYRYYSYDSWGQGTQVTVSS	high polyreactivity
QVQLVESGGGLVQAGGSLRLSCAASGRTFYKNTMGWYRQAPGKERELVATISQRRGSTYYADSVKGRFTISRDNAKNTVYLQMNSLKTEDTAVYYCNARKYTQSIHYDYWGQGTQVTVSS	high polyreactivity
QVQLVESGGGLFQEGGSLRLSCAASGIISKYYAMGWYRQAPGKERELVAAITRSGTSTYYADSVKGRFTISRDNAKNSVYLQMNSLKPEDTAVYYCAAVSGGRTPRYDYWGQGTQVTVSS	high polyreactivity
QVQLVESGGGLVQAGGSLRLSCAASGFIFPSYAMGWYRQAPGKERELVATISKRVATTYYADSVKGRFTISRDNAKNTVYLQMNSLKPEDTAVYYCAAAYRGYARHDYWGQGTQVTVSS	high polyreactivity
QVQLVESGGGLVQAGGSLRLSCAASGFTFTRYAMGWYRQAPGKERELVAAISSSGGSTYYADSVKGRFTISRDNAKNTVYLQMNSLKPEDTAVYYCNKNWPRLYYYWGQGTQVTVSS	high polyreactivity
QDQLVESGGGLVQAGGSLRLSCAASGSTFVPNAMGWYRQAPGKERELVAVISDSGVTTYYADSVKGRFTISRDNAKNTVYLQMNSLKPEDTAVYYCAARQDTWDAYLSTGEFDYWGQGTQVTVSS	high polyreactivity
QVQLVESGGGLVQAGGSLRLSCAASGSIFPANAMGWYRQAPGKERELVAGISERGSSTYYAVSVKGRFTISRDNAKNTVYLQMNSLKPEDTAVYYCAADLVGRYWSSTHNWARGDYWGQVTQVTVSS	low polyreactivity
QVQRVESGGGLVQAGGSLRLSCAGSGRIFVQYAMGWYRQAPGKERELVAAISGSGGRTYYADSVKGRFTISRDNAKNTVYLQMNSLKPEDTAVYYCARRGAYTGRYDYWGQGTQVTVSS	high polyreactivity
QVQLVESGGGLVQAGGSLRISCAASGFTFNANAMAWYRQAPGKERELVAAISLSGGRTYYADSVKRRFTISRDNAKNTVYLQMNSMKQVDTAVYYCAASPDGSFRRFSRVVSGDYWGQGTQVTVSS	high polyreactivity
QVQLVESGGGLVQAGGSLRLSCAASGNTFFVYAMGWYRQAPGKERELVADINWSTGSTYYADFVKGRFTISRDNAKNTVYLQMNSLKPEDTAVYYCAAEAYYYVIFHGSWYTDDYWGQGTQVTVSS	low polyreactivity
QVQLVESGGGLVQAGGSLRLSCPASGIIFSTYAMGWYRQAPGKERELVATITSSGSNTYYADSVKGRFTISRDNAKNTVYLQMNSLKPEDTAVYYCATYSFFWWQYDYWGQGSQVTVSS	high polyreactivity
QVQLVESGGGLVQAGGSLRLSCAASGSICVRNAMGWYRQAPGKERELVAADSVKGRFTISRDNAKNTVYLQMNSLKPEDTAVYYCNKAYIIRRGPIVYYGFDYWGQGTQVTVSS	low polyreactivity
QVQLVESWGGLVQAGGSLRLSCAASGLIFQTYTMGWYKQAPGKERELVAAITSSGGRTYYADSVKGRFTISRDNAKNTVYLQKNSLKPEDTAVYYCAARGPPSAGMGYWGQGTQVTVSS	high polyreactivity
HVQLVESGGGLVQAGASLRLSCAASGRIFGRNAMGWYRQAPGKERELVAAISGNGGSTYYADSVKGRFTISRDIAKNTVYLQMNSLKPEDTAGYYCATKYFSRMDYWGQGTQVTVSS	high polyreactivity
QVQIVESGGGLFQAGGSLRISCAASGRPFAPNAMGWYRQAPAKERELVAAITGRGGRTYYADSVKGRFTISRDNANNTVYLQMNSEKPADTAVYYCAYFIAPWGLDFWGQGTEVTVSS	high polyreactivity
QVQLVESGGGLVQAGGSHRLSCAASGIIIRYYAMGWYRQAPGKERDLVAAISGGGSTYYADSVKGRFTISRDNAKNTVYLQMNRLKPEDTAVYYCAAAGRWYYHGYNYWGQGTQVTVSS	high polyreactivity
QVQLVESGGGLVQAGGTLRLSCAASGGTFRRYAMGWYRQAPGKERELVAAISWTGGSTYYADSVKGRFTISRDNAKNTVYLQMNSLKPEDSAVYYCAAVGSSSSKGGYWGQGTQVTVSS	high polyreactivity
